Reference: patent US20220332795A1 (ARO BIOTHERAPEUTICS, published 2022)
Residue numbers refer to the chain shown, from its start. Blank lines part the entries; values can stand above or below the binder they belong to.

Assays:
[1] = target: T1, recombinant biotinylated CD71 extracellular domain (Sino Biologics) with an N-terminal 6His tag (human, UniProt P02786 89-760, biotinylated (site not stated)); assay: primary solution ELISA screen
T1 construct: extracellular domain; also called hCD71; huCD71 ECD
T1 sequence (P02786 other isoform, or with tags, fused parts or gaps): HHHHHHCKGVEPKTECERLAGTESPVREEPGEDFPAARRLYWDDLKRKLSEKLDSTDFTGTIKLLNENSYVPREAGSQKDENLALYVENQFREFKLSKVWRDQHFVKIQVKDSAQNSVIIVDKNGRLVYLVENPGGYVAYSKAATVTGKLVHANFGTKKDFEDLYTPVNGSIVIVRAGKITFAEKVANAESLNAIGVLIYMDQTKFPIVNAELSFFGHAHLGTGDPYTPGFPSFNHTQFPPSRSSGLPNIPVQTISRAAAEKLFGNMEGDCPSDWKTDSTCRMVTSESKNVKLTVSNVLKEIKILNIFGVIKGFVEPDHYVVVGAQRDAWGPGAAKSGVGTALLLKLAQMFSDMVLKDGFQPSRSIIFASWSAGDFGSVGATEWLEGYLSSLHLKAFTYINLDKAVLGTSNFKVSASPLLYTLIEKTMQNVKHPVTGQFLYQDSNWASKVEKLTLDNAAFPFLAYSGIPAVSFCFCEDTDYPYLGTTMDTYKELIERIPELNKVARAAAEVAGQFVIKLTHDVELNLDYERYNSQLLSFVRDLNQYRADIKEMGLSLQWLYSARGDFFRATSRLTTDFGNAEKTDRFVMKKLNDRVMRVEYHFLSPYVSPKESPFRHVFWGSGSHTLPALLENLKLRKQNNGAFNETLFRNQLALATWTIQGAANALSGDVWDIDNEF

[2] = target: T1, recombinant biotinylated CD71 …; assay: primary solution ELISA screen, signal on hCD71 over HSA

- RLU [1]: 1.04e+06 RLU
- hCD71:HSA [2]: 101
B1: SEQ ID NO 58 (designed binder, not shown: small tags and cut ends)
chain: MLPAPKNLVVSRVTEDSARLSWTAPDAAFDSFHIEYLELSRHGEAIVLTVPGSERSYDLTGLKPGTEYWVMIFGVKGGGPSKPLSAIFTT
notes: FN3 domain, hit of the apical domain panning

- RLU [1]: 2.64e+06 RLU
- hCD71:HSA [2]: 96
B2: SEQ ID NO 71 (designed binder, not shown: small tags and cut ends)
chain: B1 chain with H33P, E35S, R41L, H42Y, W69P, M71G, F73A, G79V, P80V, K82R
notes: as for B1

- RLU [1]: 336000 RLU
- hCD71:HSA [2]: 73
B3: SEQ ID NO 101 (designed binder, not shown: small tags and cut ends)
chain: MLPAPKNLVVSRVTEDSARLSWTAPDAAFDSFHILYEELFLVGEAIVLTVPGSERSYDLTGLKPGTEYKVPISGVKGGPVSRPLSAIFTT
notes: as for B1

- RLU [1]: 726000 RLU
- hCD71:HSA [2]: 48
B4: SEQ ID NO 96 (designed binder, not shown: small tags and cut ends)
chain: MSLPAPKNLVVSRVTEDSARLSWTAPDAAFDSFPIAYLEVFYEGEAIVLTVPGSERSYDLTGLKPGTEYQVPIEGVKGGAMSLPLSAIFTT
notes: as for B1

- RLU [1]: 232000 RLU
- hCD71:HSA [2]: 29
B5: SEQ ID NO 66 (designed binder, not shown: small tags and cut ends)
chain: MLPAPKNLVVSRVTEDSARLSWTAPDAAFDSFTIDYDEPRSPGEAIVLTVPGSERSYDLTGLKPGTEYRVFIWGIKGGDTSFPLSAIFTT
notes: as for B1

- RLU [1]: 530000 RLU
- hCD71:HSA [2]: 143
B6: SEQ ID NO 75 (designed binder, not shown: small tags and cut ends)
chain: MLPAPKNLVVSRVTEDSARLSWTAPDAAFDSFTISYGEEALIGEAIYLRVPGSERSYDLTGLKPGTEYYVHIEGVKGGSWSQPLAAAFTT
notes: as for B1

- RLU [1]: 383000 RLU
- hCD71:HSA [2]: 14
B7: SEQ ID NO 2 (designed binder, not shown: small tags and cut ends)
chain: MLPAPKNLVVSEVTEDSARLSWQGVARAFDSFMINYSELFWMGEAIVLTVPGSERSYDLTGLKPGTEYVVRIKGVKGGKGSWPLHAHFTT
notes: as for B1

- RLU [1]: 1.4e+06 RLU
- hCD71:HSA [2]: 1280
B8: SEQ ID NO 14 (designed binder, not shown: small tags and cut ends)
chain: MLPAPKNLVVSRVTEDSARLSWTAPDAAFDSFPIYYVENVVWGEAIVLTVPGSERSYDLTGLKPGTEYWEVIIGVKGGQCSRPLSAIFTT
notes: as for B1

- RLU [1]: 844000 RLU
- hCD71:HSA [2]: 25
B9: SEQ ID NO 80 (designed binder, not shown: small tags and cut ends)
chain: MLPAPKNLVVSRVTEDSARLSWTAPDAAFDSFWIDYEEEGVIGEAIYLHVPGSERSYDLTGLKPGTEYVVKIHGVKGGHPSHPLVAVFTT
notes: as for B1

- RLU [1]: 657000 RLU
- hCD71:HSA [2]: 95
B10: SEQ ID NO 16 (designed binder, not shown: small tags and cut ends)
chain: MLPAPKNLVVSRVTEDSARLSWTAPDAAFDSFGIAYREFRPSGEAIVLTVPGSERSYDLTVETGYRNEVVICGVKGGPWSGPLSAIFTT
notes: as for B1

- RLU [1]: 282000 RLU
- hCD71:HSA [2]: 77
B11: SEQ ID NO 87 (designed binder, not shown: small tags and cut ends)
chain: MLPAPKNLVVSRVTEDSARLSWTAPDAAFDSFAIEYTEFLYSGEAIVLTVPGSERSYDLTGLKPGTEYGVPINGVKGGFVSPPLSAIVTT
notes: as for B1

- RLU [1]: 3.04e+06 RLU
- hCD71:HSA [2]: 26
B12: SEQ ID NO 48 (designed binder, not shown: small tags and cut ends)
chain: MLPAPKNLVVSRVTEDSARLSWTAPDAAFDSFLIYYEEGYLEYYYSGEAIVLTVPGSERSYDLTGLKPGTEYYVGIVGVKGGGLSGPLSAISTT
notes: as for B1

- RLU [1]: 491000 RLU
- hCD71:HSA [2]: 74
B13: SEQ ID NO 91 (designed binder, not shown: small tags and cut ends)
chain: MLPAPKNLVVSRVTEDSARLSWTAPDAAFDSFQIHYWETQGFGEAIVLTVPGSERSYDLTGLKPGTEYPVLIPGVKGGPSSLPLSAIFTT
notes: as for B1

- RLU [1]: 1.11e+06 RLU
- hCD71:HSA [2]: 68
B14: SEQ ID NO 59 (designed binder, not shown: small tags and cut ends)
chain: MLPAPKNLVVSRVTEDSARLSWTAPDAAFDSFVYNEVHWIGEAIVLTVPGSERSYDLTGLKPGTEYFVGIYGVKGGHWSKPLSAIFTT
notes: as for B1

- RLU [1]: 430000 RLU
- hCD71:HSA [2]: 91
B15: SEQ ID NO 93 (designed binder, not shown: small tags and cut ends)
chain: MLPAPKNLVVSRVTEDSARLSWTAPDAAFDSFAIEYYEPVPAGEAIYLDVPGSERSYDLTGLKPGTEYDVTIYGVKGGYYSHPLFASFTT
notes: as for B1

- RLU [1]: 315000 RLU
- hCD71:HSA [2]: 43
B16: SEQ ID NO 6 (designed binder, not shown: small tags and cut ends)
chain: MLPAPKNLVVSRVTEDSARLSWTAPDAAFDSFPIIYMETFSRGEAIVLTVPGSERSYDLTGLKPGTEYRVPIGGVKGGSSSCPLSAIFTT
notes: as for B1

- RLU [1]: 788000 RLU
- hCD71:HSA [2]: 27
B17: SEQ ID NO 10 (designed binder, not shown: small tags and cut ends)
chain: B16 chain with P33K, I35A, M37I, F40A, S41T, R69V, G73P, S79N, S80T, C82S
notes: as for B1

- RLU [1]: 229000 RLU
- hCD71:HSA [2]: 28
B18: SEQ ID NO 62 (designed binder, not shown: small tags and cut ends)
chain: B16 chain with P33K, I35R, M37T, F40R, R42I, R69C, S79D, C82W, F88S
notes: as for B1

- RLU [1]: 791000 RLU
- hCD71:HSA [2]: 43
B19: SEQ ID NO 20 (designed binder, not shown: small tags and cut ends)
chain: MLPAPKNLVVARVTEDSARLSWTAPDAAIDSFPIDYSEYWWGGEAIVLTVPGSERSYDLTGLKPGTEYPVLITGVKGGYRSGPLSAIFTT
notes: as for B1

- RLU [1]: 957000 RLU
- hCD71:HSA [2]: 147
B20: SEQ ID NO 97 (designed binder, not shown: small tags and cut ends)
chain: MLPAPKNLVVSRVTEDSARLSWTAPDAAFDSFHIWYEEETTIGEAIYLHVPGSERSYDLTGLKPGTEYEVHITGVKGGPYSRPLFANFTT
notes: as for B1

- RLU [1]: 919000 RLU
- hCD71:HSA [2]: 141
B21: SEQ ID NO 89 (designed binder, not shown: small tags and cut ends)
chain: MLPAPENLVVSRVTEDSARLSWTAPDAAFDSFWIEYYEGVIQGEAIVLTVPGSERSYDLTGLKPGTEYFVAIWGVKGGKWSVPLSAIFTT
notes: as for B1

- RLU [1]: 4.71e+06 RLU
- hCD71:HSA [2]: 826
B22: SEQ ID NO 63 (designed binder, not shown: small tags and cut ends)
chain: MLPAPKNLVVSRVTEDSARLSWTAPDAAFDSFCISYYERMGRGEAIVLTVPGSERSYDLTGLKPGTEYMVYIFGVKGGLNSLPLSAIFTT
notes: as for B1

- RLU [1]: 1.85e+06 RLU
- hCD71:HSA [2]: 131
B23: SEQ ID NO 67 (designed binder, not shown: small tags and cut ends)
chain: MLPAPKNLVVSRVTEDSARLSWTAPDAAFDSFTILYAEQAQFGEAIVLTVPGSERSYDLTGLKPGTEYPITGVKGGTRSGPLSAISTT
notes: as for B1

- RLU [1]: 1.31e+06 RLU
- hCD71:HSA [2]: 117
B24: SEQ ID NO 98 (designed binder, not shown: small tags and cut ends)
chain: MLPAPKNLVVSRVTEDSARLSWTAPDAAFDSFGIAYDEWPEFGEAIVLTVPGSERSYDLTGLKPDTEYIVEIYGVKGGWFSWPLSAIFTT
notes: as for B1

- RLU [1]: 564000 RLU
- hCD71:HSA [2]: 46
B25: SEQ ID NO 90 (designed binder, not shown: small tags and cut ends)
chain: MLPAPKNLVVSRVTEDSARLSWQGVARAFDSFLITYREQIFAGEVIVLTVPGSERSYDLTGLKPGTEYPVWIQGVKGGSPSAEFTT
notes: as for B1

- RLU [1]: 252000 RLU
- hCD71:HSA [2]: 19
B26: SEQ ID NO 61 (designed binder, not shown: small tags and cut ends)
chain: MLPAPKNLVVSRVTEDSARLSWTAPDAAFDSFQIVYSELWIKGEAIVLTVPGSERSYDLTGLKPGTEYQVPIPGVKGGRNSFPLSAIFTT
notes: as for B1

- RLU [1]: 687000 RLU
- hCD71:HSA [2]: 69
B27: SEQ ID NO 3 (designed binder, not shown: small tags and cut ends)
chain: MLPAPKNLVVSRVTEDSARLSWTAPDAAFDSFNIEYAETRWYGEAIVLTVPGSERSYDLTGLKPGTEYVVPIDGVKGGIASKPLSAIFTT
notes: as for B1

- RLU [1]: 273000 RLU
- hCD71:HSA [2]: 46
B28: SEQ ID NO 79 (designed binder, not shown: small tags and cut ends)
chain: B27 chain with N33V, A37T, T39R, R40F, Y42S, V69S, I79Q, A80C, K82T
notes: as for B1

- RLU [1]: 321000 RLU
- hCD71:HSA [2]: 20
B29: SEQ ID NO 50 (designed binder, not shown: small tags and cut ends)
chain: MSLPAPKNLVVSRVTEDSARLSWTAPDAAFDSFTIHYREFQLSGEAIVLTVPGSERSYDLTGLKPGTEYDVPIEGVKGGPGSRPLSAIFTT
notes: as for B1

- RLU [1]: 3.17e+06 RLU
- hCD71:HSA [2]: 1170
B30: SEQ ID NO 69 (designed binder, not shown: small tags and cut ends)
chain: MLPAPKNLVVSRVTEDSARLSWTAPDAAFDSFHIAYEETATSGEAIYLRVPGSERSYDLTGLKPGTEYGVEIEGVKGGARSRPLYADFTT
notes: as for B1

- RLU [1]: 674000 RLU
- hCD71:HSA [2]: 41
B31: SEQ ID NO 76 (designed binder, not shown: small tags and cut ends)
chain: MLPAPKNLVVSRVTEDSARLSWTAPDAAFDSFTIEYYENIGIGEAIVLTVPGSERSYDLTGLKPGTEYSVPIVGVKGGPYSHPLSAIFTT
notes: as for B1

- RLU [1]: 579000 RLU
- hCD71:HSA [2]: 49
B32: SEQ ID NO 54 (designed binder, not shown: small tags and cut ends)
chain: B31 chain with T33A, E35A, Y37G, N39H, G41V, S69M, V73A, Y80I, H82L
notes: as for B1

- RLU [1]: 2.17e+06 RLU
- hCD71:HSA [2]: 580
B33: SEQ ID NO 29 (designed binder, not shown: small tags and cut ends)
chain: B21 chain with E6K, Y37W, G39A, I41G, Q42F, A71G, W73Y, K79Y, W80L, V82A
notes: as for B1

- RLU [1]: 210000 RLU
- hCD71:HSA [2]: 33
B34: SEQ ID NO 85 (designed binder, not shown: small tags and cut ends)
chain: B31 chain with T33I, Y37F, N39P, G41P, S69A, P71N, V73Y, P79Y, Y80L
notes: as for B1

- RLU [1]: 271000 RLU
- hCD71:HSA [2]: 29
B35: SEQ ID NO 78 (designed binder, not shown: small tags and cut ends)
chain: MLPAPKNLVVSRVTEDSARLSWTAPDAAFDSFGIGYYEHKRFGEAIQLSVPGSERSYDLTGLKPGTEYEVDIEGVKGGVLSWPLFAEFTT
notes: as for B1

- RLU [1]: 824000 RLU
- hCD71:HSA [2]: 56
B36: SEQ ID NO 74 (designed binder, not shown: small tags and cut ends)
chain: MLPAPKNLVVSRVTEDSARLSWTAPDAAFDSFSITYLEWWNLGEAIVLTVPGSERSYDLTGLKPGTEYMVTIPGVKGGMSSYPLSAIFTT
notes: as for B1

- RLU [1]: 408000 RLU
- hCD71:HSA [2]: 79
B37: SEQ ID NO 100 (designed binder, not shown: small tags and cut ends)
chain: B36 chain with S33Y, T35W, L37E, W39V, W40M, N41Y, M69N, T71P, M79H, Y82P
notes: as for B1
